In publication PMC5992102:
One block for each molecule: values may come before it.

Columns and labels:
[1] = biological target: Dnmt3b-C (C-terminal catalytic domain of mouse Dnmt3b) (mouse)
[2] = biological target: Dnmt3b-C (mouse, UniProt O88509 558-859); assay: nitrocellulose filter binding

DNA methylation activity of Dnmt3b-C in the presence of Dnmt3L (fold activation) [1]: 6 fold
Molecule: Dnmt3L (from UniProt Q9CWR8 1-421) (natural protein)

B1: Cy5-labeled 30-mer, one CpG site (dsDNA)
DNA 1: GAAGCTGGGACTTCCGGGAGGAGAGTGCAA
DNA 2: TTGCACTCTCCTCCCGGAAGTCCCAGCTTC
binding result [2]: binds
